Patent CN108635579A (UNIV JINAN, dated 2018)

How the values were obtained:
[1] = target: T1, 重组人碱性成纤维细胞生长因子(bFGF) (human, UniProt P09038 143-288, limits assumed); assay: cell-based or functional assay
T1 construct: Bought protein; also called 重组人bFGF; bFGF抗原

[2] = target: T1, 重组人碱性成纤维细胞生长因子(bFGF); assay: SPR, bFGF immobilised on the chip, nanobody 3.125-200 nM in flow

T1 sequence (P09038 143-288 limits assumed): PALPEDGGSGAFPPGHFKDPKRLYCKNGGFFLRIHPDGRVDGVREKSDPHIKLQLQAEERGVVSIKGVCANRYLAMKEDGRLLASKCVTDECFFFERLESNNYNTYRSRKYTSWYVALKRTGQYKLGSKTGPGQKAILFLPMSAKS

| Kd [2] [nM] | Molecule | also measured |
| --- | --- | --- |
|  | 阳性对照FGFR (receptor) | 最高增值抑制率, A375细胞 (CCK-8) [1]: 25.3%; 最高增值抑制率, B16-F10细胞 (CCK-8) [1]: 22.1%; 最高增值抑制率, B16细胞 (CCK-8) [1]: 27.1% |
| 10.3 | 抗bFGF纳米抗体 Nb6 (VHH, Alpaca nanobody; Nickel-purified, anti-Flag detected; also called Nb bFGF) VHH: LQESGGDLVQPGGSLRLSCEVSGSNFSINDMGWYRQAPGKRREVVAGISSVGRTMYGDPVKGRFTISRDNAKNMVYLQMNRLKPEDTAVYYCHLYGDYRGTGFWGKGTQVTVSS |  |
| 318 | 抗bFGF纳米抗体 Nb2 (VHH, Alpaca nanobody; Nickel-purified, anti-Flag detected; also called Nb bFGF) VHH: LQESGGDLVQPGGSLRLSCEVSGSNFSINDMGWYRQAPGKRREVVAGISSVGRAMYADPVKGRFTISRDNAKNMVYLQMNRLKPEDTAVYYCYLYGDYRGTGFWGKGTQVTVSS |  |
| 5.37 | 抗bFGF纳米抗体 Nb3 (VHH, Alpaca nanobody; Nickel-purified, anti-Flag detected; also called Nb bFGF) VHH: LQESGGDLVQPGGSLRLSCEVSGSNFSINDMGWYRQAPGKRREVVAGISSVGRTMYADPVKGRFTISRDNAKNMVYLQMNRLKPEDTAVYYCHLYGDYRGTGFWGKGTQVTVSS |  |
| 11.3 | 抗bFGF纳米抗体 Nb1 (VHH, Expressed from pET22b in E. coli, purified on a nickel column and detected with an anti-Flag antibody; also called Nb bFGF) VHH: LQESGGDLVQPGGSLRLSCEVSGSNFSNNDMGWYRQAPGKQREVVAGISSVGRTMYGDPVKGRFTISRDNAKNMVYLQMNRLKAKDTAVYYCHLYGDYRGTGFWGKGTQVTVSS |  |
| 12.4 | 抗bFGF纳米抗体 Nb5 (VHH, Alpaca nanobody; Nickel-purified, anti-Flag detected; also called Nb bFGF) VHH: LQESGGGLVQAGGSLRLSCAASGRTFSSGAMGWFRQAPGKEPEFVATITWDGGTTYYADSVKGRYTISRDNAKNTVYLQMNDLKPEDTAVYSCAARSYSEAYYLIGSSDYNYWGQGTQVTVSS |  |
